# Source: paper PMC5703266
# Target: recombinant soluble tissue factor sTF (1–219) (UniProt P13726)
# Sequence of UniProt P13726 (P13726 33-251): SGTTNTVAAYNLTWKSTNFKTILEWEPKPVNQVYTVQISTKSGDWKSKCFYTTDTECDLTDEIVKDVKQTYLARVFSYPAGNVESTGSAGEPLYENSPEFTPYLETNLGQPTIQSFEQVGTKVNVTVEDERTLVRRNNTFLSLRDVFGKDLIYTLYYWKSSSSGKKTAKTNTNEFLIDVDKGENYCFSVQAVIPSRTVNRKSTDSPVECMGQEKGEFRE
substance,measurement,value
coagulation factor VIIa (FVIIa) (enzyme),"activation of FX in solution, kcat/KM",663 M⁻¹ s⁻¹
